Values joined by “and” are separate entries in the source; they are usually repeats but may differ in a detail not shown here. Equal values may be shown once.

As a reminder, the stoichiometry N is the number of molecules, sites or subunits per partner or assembly.

Assay [1] concerns the target Selenomethionine-containing TraMΔ as crystallised (TraM 194-322) (Enterococcus faecalis (conjugative plasmid pIP501)). As to the kind of experiment: crystal structure.
Assay [2] deals with TraM C-terminal domain (TraM 190-322) from the Enterococcus faecalis conjugative plasmid pIP501 (Enterococcus faecalis (conjugative plasmid pIP501)). Description: cross-linking.

As for “Selenomethionine-containing TraMΔ as crystallised (TraM 194-322) (domain or fragment)”, the stoichiometry N in assay [1] is 3.
As to “TraM C-terminal domain (TraM 190-322) from the Enterococcus faecalis conjugative plasmid pIP501 (domain or fragment)”, in assay [2], the stoichiometry N was 2 and 3.

For the origin of these results see publication PMC3548508.
